Reference: PMC6007841 (Journal of medicinal chemistry, 2018)
Bridge positions count the residues as written; N and C are the ends. Ends that are not written are not given here.

What was measured:
Test in all cases: cell-based or functional assay
[1] = target: human melanocortin 1 receptor (human, UniProt Q01726 1-317)
[2] = target: mouse melanocortin 1 receptor (mouse, UniProt Q01727 1-315)
[3] = target: human melanocortin 4 receptor (human, UniProt P32245 1-332)
[4] = target: mouse melanocortin 3 receptor (mouse, UniProt P33033 1-323)
Chain of mouse melanocortin 3 receptor (P33033 whole entry): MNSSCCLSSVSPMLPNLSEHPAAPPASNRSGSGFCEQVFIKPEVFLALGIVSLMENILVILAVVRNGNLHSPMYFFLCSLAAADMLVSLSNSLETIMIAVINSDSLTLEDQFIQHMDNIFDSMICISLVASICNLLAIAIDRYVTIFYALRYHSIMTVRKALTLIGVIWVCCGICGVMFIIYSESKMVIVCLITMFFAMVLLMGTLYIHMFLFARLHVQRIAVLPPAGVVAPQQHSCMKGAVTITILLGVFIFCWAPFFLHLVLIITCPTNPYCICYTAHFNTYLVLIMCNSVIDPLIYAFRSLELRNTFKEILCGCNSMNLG

[5] = target: mouse melanocortin 5 receptor (mouse, UniProt P41149 1-325)
Chain of mouse melanocortin 5 receptor (P41149 whole entry): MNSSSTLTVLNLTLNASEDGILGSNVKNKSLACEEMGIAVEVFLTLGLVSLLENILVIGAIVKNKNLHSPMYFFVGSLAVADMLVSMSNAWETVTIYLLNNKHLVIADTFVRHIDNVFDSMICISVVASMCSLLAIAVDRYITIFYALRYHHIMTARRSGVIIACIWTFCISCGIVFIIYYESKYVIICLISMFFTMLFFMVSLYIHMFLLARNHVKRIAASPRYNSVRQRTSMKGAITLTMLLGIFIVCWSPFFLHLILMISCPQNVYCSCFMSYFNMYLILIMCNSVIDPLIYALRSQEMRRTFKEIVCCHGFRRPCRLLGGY

[6] = target: human melanocortin 3 receptor (human, UniProt P41968 1-323)
Chain of human melanocortin 3 receptor (P41968 whole entry): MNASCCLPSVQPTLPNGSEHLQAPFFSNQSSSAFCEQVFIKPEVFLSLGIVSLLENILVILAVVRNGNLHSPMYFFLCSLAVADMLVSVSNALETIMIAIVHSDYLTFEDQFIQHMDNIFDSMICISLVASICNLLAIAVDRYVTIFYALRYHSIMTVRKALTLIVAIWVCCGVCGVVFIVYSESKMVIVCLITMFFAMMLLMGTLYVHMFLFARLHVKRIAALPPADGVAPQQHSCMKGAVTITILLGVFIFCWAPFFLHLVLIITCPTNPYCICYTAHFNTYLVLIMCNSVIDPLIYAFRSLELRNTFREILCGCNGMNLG

Chain of human melanocortin 1 receptor (Q01726 whole entry): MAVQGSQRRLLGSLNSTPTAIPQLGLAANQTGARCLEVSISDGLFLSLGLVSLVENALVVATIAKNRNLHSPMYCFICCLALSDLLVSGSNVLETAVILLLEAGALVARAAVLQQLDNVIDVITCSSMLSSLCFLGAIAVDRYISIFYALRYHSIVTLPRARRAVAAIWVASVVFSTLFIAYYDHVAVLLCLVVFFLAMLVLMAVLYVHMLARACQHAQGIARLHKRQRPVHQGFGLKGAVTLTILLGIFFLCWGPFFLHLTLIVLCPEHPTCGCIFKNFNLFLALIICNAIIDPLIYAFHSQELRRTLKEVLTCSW
Chain of mouse melanocortin 1 receptor (Q01727 whole entry): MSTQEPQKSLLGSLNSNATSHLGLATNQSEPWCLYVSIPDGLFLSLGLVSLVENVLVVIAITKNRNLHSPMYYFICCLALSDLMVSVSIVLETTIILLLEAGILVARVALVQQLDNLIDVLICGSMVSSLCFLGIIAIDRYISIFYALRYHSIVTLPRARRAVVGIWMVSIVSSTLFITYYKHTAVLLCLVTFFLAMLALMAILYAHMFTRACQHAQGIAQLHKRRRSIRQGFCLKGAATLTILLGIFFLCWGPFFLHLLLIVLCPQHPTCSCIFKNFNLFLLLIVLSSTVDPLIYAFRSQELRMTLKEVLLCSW
Chain of human melanocortin 4 receptor (P32245 whole entry): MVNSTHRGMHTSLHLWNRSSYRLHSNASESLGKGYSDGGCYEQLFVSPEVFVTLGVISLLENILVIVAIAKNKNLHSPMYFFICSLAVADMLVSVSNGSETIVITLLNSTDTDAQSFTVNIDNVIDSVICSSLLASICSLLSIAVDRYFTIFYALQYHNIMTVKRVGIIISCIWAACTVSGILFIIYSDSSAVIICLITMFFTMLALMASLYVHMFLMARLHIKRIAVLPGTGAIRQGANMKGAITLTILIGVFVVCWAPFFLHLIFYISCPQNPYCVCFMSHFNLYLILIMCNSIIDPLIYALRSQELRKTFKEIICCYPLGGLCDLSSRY

| Binder | cAMP agonist EC50 (AlphaScreen cAMP assay, HEK293 cells expressing the receptor) [1] [µM] | cAMP agonist EC50 (AlphaScreen cAMP assay, HEK293 cells expressing the receptor) [2] [µM] | cAMP agonist EC50 (AlphaScreen cAMP assay, HEK293 cells expressing the receptor) [3] [µM] | cAMP agonist EC50 (AlphaScreen cAMP assay, HEK293 cells expressing the receptor) [4] [µM] | cAMP agonist EC50 (AlphaScreen cAMP assay, HEK293 cells expressing the receptor) [5] [µM] | cAMP agonist EC50 (AlphaScreen cAMP assay, HEK293 cells expressing the receptor) [6] [µM] |
| --- | --- | --- | --- | --- | --- | --- |
| DHYNCVSSGGQCLYSACPIFTKIQGTCYRGKAKCCK (peptide, UniProt P60022 33-68, looked up, oxidized form (disulfide bonds formed)) [human β-defensin 1, oxidized form] | 7.4 |  |  |  |  |  |
| DQYKCLQHGGFCLRSSCPSNTKLQGTCKPDKPNCCKS (peptide, UniProt P56386 33-69, looked up, disulfide 12-27, 17-35, 5-34) [mouse β-defensin 1, oxidized form] | 1.4 | 11 | 3.8 | 14 | 5.2 | 22 |
| GIINTLQKYYCRVRGGRCAVLSCLPKEEQIGKCSTRGRKCCRRKK (peptide, UniProt P81534 23-67, looked up, oxidized, folded form (disulfide bonds formed)) [human β-defensin 3, oxidized, folded form] | 0.4 | 2.2 | 2.6 |  | 4.7 |  |
